The test has as its target T1, Recombinant human SAA1 made in human embryonic kidney (HEK) cells (human, UniProt P0DJI8 19-122).
T1 sequence (looked up): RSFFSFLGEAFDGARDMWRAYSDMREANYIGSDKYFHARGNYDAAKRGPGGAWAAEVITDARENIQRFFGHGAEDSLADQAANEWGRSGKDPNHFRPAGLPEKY
Description: retention on a 3 kDa cutoff centrifugal filter, read by TNFα from J774 cells.

Where no end group is shown, it is not given here. The star is where a group is joined. X1 = 2,3‑bis(palmitoyloxy)‑(2RS)‑propyl, CCCCCCCCCCCCCCCC(=O)OCC(C*)OC(=O)CCCCCCCCCCCCCCC; Palmitoyl = CCCCCCCCCCCCCCCC(=O)*

For the molecule Palmitoyl-C(X1)SKKKK [Pam3CSK4, synthetic triacylated lipopeptide], the binding result is “binds”.

The values above are taken from article PMC6179936 (Journal of immunology (Baltimore, Md. : 1950), 2018).
